This data set has as its target T1, HIM-8 ZF1-2-CTD (Caenorhabditis elegans (N2), UniProt O18068 223-361).
T1 sequence: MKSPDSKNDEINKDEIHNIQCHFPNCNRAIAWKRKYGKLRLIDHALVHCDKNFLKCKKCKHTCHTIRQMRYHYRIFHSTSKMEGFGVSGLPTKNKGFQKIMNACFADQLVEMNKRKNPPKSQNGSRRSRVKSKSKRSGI
Kind of data set: ITC. (In general: Isothermal titration calorimetry measures the heat released or taken up as one component is titrated into another.)

B1: X chromosome PC motif 12 bp (dsDNA)
DNA 1: TTGGTCAGTGCA
DNA 2: TGCACTGACCAA
By Kd is commonly meant the equilibrium constant for the complex coming apart. A high value points to weaker binding. Regarding B1, the Kd turned out to be 430 ± 10 nM.

B2: X PC motif TG to CA (dsDNA)
DNA 1: TTGGTCAGCACA
DNA 2: TGTGCTGACCAA
With B2, the binding result is on record as “no binding”.

The values above are taken from article PMC11605055.
